Test results reported in paper PMC3158102.

Biological target: IQ motif containing GTPase activating protein 1 (IQGAP1), endogenous in differentiated HL-60 cells (human (endogenous in HL-60)) (UniProt P46940)
Experiment: co-IP; rabbit anti-IQGAP1 antibody and Protein A/G agarose; lysates of differentiated HL-60 cells expressing CXCR2, vehicle or 100 ng/ml CXCL8 for 1 or 5 min; western blot for Cdc42, densitometry

Chain of IQ motif containing GTPase activating protein 1 (IQGAP1), endogenous in differentiated HL-60 cells (human (endogenous in HL-60)) (P46940 whole entry): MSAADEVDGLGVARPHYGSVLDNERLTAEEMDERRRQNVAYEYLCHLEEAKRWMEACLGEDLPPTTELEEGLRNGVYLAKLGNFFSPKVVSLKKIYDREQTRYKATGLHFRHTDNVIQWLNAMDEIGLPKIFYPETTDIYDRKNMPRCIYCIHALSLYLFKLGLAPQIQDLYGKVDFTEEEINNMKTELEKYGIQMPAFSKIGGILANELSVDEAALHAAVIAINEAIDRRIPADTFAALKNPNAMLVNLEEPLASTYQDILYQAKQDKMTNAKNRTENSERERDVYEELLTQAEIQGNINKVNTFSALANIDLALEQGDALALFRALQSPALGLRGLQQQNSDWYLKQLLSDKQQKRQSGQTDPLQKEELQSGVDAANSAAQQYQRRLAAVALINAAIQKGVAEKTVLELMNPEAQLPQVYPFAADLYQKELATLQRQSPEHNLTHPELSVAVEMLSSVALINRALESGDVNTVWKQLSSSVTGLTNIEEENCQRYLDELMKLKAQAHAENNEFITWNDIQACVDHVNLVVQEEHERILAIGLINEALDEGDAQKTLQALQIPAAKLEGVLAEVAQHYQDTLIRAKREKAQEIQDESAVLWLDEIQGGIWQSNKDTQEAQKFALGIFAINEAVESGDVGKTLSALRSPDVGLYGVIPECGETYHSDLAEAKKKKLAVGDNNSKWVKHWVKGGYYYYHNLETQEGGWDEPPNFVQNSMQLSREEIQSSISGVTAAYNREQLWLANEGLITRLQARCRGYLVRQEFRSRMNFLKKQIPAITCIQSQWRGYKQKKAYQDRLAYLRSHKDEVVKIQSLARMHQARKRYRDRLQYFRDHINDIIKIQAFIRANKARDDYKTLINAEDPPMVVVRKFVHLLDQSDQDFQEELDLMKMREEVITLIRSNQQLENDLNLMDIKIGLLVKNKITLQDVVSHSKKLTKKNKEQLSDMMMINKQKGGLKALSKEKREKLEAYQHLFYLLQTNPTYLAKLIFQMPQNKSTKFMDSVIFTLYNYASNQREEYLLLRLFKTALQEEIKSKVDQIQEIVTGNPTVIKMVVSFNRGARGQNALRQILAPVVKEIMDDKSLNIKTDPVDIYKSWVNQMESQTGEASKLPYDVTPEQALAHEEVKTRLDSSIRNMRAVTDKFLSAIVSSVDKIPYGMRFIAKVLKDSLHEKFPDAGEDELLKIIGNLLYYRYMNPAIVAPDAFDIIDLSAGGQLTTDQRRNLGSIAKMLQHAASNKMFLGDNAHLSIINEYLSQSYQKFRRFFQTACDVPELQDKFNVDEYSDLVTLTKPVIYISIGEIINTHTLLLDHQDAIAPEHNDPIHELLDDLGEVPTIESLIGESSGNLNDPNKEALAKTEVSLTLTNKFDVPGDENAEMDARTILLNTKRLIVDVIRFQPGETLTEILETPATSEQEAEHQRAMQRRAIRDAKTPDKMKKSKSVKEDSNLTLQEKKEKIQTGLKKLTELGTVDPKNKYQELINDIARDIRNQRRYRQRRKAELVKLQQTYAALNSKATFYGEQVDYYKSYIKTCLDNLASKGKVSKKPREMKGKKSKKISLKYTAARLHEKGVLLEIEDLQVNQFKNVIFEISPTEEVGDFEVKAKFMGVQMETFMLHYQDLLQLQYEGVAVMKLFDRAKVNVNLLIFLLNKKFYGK
Chain of Cdc42, endogenous in differentiated HL-60 cells expressing CXCR2, P60953 1-191 (natural protein; other documents disagree on this pair) (P60953 whole entry): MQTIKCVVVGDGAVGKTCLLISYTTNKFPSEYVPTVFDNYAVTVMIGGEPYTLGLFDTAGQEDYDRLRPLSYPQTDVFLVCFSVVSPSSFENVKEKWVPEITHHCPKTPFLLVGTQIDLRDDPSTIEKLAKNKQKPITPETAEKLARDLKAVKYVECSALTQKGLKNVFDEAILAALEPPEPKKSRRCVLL

- fold increase in co-immunoprecipitated Cdc42 after 1 min of CXCL8 over untreated cells: 1.36 fold
Substance: Cdc42, endogenous in differentiated HL-60 cells expressing CXCR2, P60953 1-191 (natural protein; other documents disagree on this pair)
